Laboratory results: patent publication US8563520B2, “Treatment of ocular disease with inhibitors of alpha2 macroglobulin protein” (McGill University, priority 2005, dated 2013)

Tested on: retinal ganglion cells (RGCs)
Test: RGC loss after intraocular injection of α2 macroglobulin protein in normal eyes
Assay type: in vivo, rat
Experimental: RGCs were labeled with 3% DII (1,1-dioctadecyl-3,3,3,3-tetramethylindocarbocyanine perchlorate) or with 3% fluorogold. Briefly, Wistar rats were anesthetized and their heads were mounted in a stereotactic apparatus.
7 days after dye injection, the vasculature of the rats were perfused-fixed (transcardiac perfusion in phosphate-buffer (PB), followed by 4% PFA in PB) and the eyes were enucleated. After post-fixing for 1 hour cuts were made through the sclera to form a Maltese cross pattern and retinas detached from the eyecup at the optic nerve head. The retinas were flat-mounted on glass slides (vitreous side up) air-dried and cover-slipped with mounting medium (Molecular Probes). The retinas were observed under fluorescence microscopy (Zeiss). […] RGCs were recognized in flat mounted retinas by the presence of retrogradely transported dye and by morphology. RGCs in all 4 quadrants (16 images per retina) were averaged and presented as […] of area counted.
To evaluate the potential role of α2 macroglobulin in the death of RGCs, α2 macrobglobulin protein was microinjected in normal eyes to determine whether glaucoma-like RGC death ensued. In this paradigm, a total of 1-2 μg of α2 macroglobulin were delivered by a single intraocular injection in normal eyes, and surviving RGCs were counted at days 14 or 28 post-injection, by retrograde labeling. […]

B1: α2m: α2 macroglobulin protein injected intraocularly into normal rat eyes (protein, UniProt P06238 28-1472, looked up)
Alpha-2-macroglobulin: SAPQKPIYMVMVPSLLHAGTPEKACFLFSHLNETVAVRVSLESVRGNQSLFTDLVVDKDLFHCTSFTVPQSSSDEVMFFTVQVKGATHEFRRRSTVLVKKKESLVFAQTDKPIYKPGQTVRFRVVSLDESFHPLNELIPLLYIQDPKNNRIAQWQNFNLEGGLKQLSFPLSSEPTQGSYKVVIRTESGRTVEHPFSVEEFVLPKFEVRVTVPETITILEEEMNVSVCGIYTYGKPVPGRVTVNICRKYSNPSNCFGEESVAFCEKLSQQLDGRGCFSQLVKTKSFQLKRQEYEMQLDVHAKIQEEGTGVEETGKGLTKITRTITKLSFVNVDSHFRQGIPFVGQVLLVDGRGTPIPYETIFIGADEANLYINTTTDKHGLARFSINTDDIMGTSLTVRAKYKDSNACYGFRWLTEENVEAWHTAYAVFSPSRSFLHLESLPDKLRCDQTLEVQAHYILNGEAMQELKELVFYYLMMAKGGIVRAGTHVLPLKQGQMRGHFSILISMETDLAPVARLVLYAILPNGEVVGDTAKYEIENCLANKVDLVFRPNSGLPATRALLSVMASPQSLCGLRAVDQSVLLMKPETELSASLIYDLLPVKDLTGFPQGADQREEDTNGCVKQNDTYINGILYSPVQNTNEEDMYGFLKDMGLKVFTNSNIRKPKVCERLRDNKGIPAAYHLVSQSHMDAFLESSESPTETRRSYFPETWIWDLVVVDSAGVAEVEVTVPDTITEWKAGAFCLSNDTGLGLSPVVQFQAFQPFFVELTMPYSVIRGEAFTLKATVLNYLPTCIRVAVQLEASPDFLAAPEEKEQRSHCICMNQRHTASWAVIPKSLGNVNFTVSAEALNSKELCGNEVPVVPEQGKKDTIIKSLLVEPEGLENEVTFNSLLCPMGAEVSELIALKLPSDVVEESARASVTVLGDILGSAMQNTQDLLKMPYGCGEQNMVLFAPNIYVLDYLNETQQLTQEIKTKAIAYLNTGYQRQLNYKHRDGSYSTFGDKPGRNHANTWLTAFVLKSFAQARKYIFIDEVHITQALLWLSQQQKDNGCFRSSGSLLNNAMKGGVEDEVTLSAYITIALLEMSLPVTHPVVRNALFCLDTAWKSARGGAGGSHVYTKALLAYAFALAGNQDTKKEILKSLDEEAVKEEDSVHWTRPQKPSVSVALWYQPQAPSAEVEMTAYVLLAYLTTEPAPTQEDLTAAMLIVKWLTKQQNSHGGFSSTQDTVVALHALSKYGSATFTRAKKAAQVTIHSSGTFSTKFQVNNNNQLLLQRVTLPTVPGDYTVKVTGEGCVYLQTSLKYSVLPREEEFPFTVVVQTLPGTCEDPKAHTSFQISLNISYTGSRSESNMAIADVKMVSGFIPLKPTVKMLERSVHVSRTEVSNNHVLIYLDKVSNQTVNLSFTVQQDIPIRDLKPAVVKVYDYYEKDEFAVAKYSAPCSTDYGNA
- RGC losses compared to vehicle PBS (2 weeks after single intraocular injection of 1-2 μg in normal eyes): 11±3%
- RGC losses compared to vehicle PBS (4 weeks after single intraocular injection of 1-2 μg in normal eyes): 28±11%
